The target of experiment [1] is T1, human E-selectin extracellular domain with 10 His purification tail (human, UniProt P16581 22-556).
T1 construct: also called soluable human E-selectin extracellular domain; rhE-Selectin
T1 sequence: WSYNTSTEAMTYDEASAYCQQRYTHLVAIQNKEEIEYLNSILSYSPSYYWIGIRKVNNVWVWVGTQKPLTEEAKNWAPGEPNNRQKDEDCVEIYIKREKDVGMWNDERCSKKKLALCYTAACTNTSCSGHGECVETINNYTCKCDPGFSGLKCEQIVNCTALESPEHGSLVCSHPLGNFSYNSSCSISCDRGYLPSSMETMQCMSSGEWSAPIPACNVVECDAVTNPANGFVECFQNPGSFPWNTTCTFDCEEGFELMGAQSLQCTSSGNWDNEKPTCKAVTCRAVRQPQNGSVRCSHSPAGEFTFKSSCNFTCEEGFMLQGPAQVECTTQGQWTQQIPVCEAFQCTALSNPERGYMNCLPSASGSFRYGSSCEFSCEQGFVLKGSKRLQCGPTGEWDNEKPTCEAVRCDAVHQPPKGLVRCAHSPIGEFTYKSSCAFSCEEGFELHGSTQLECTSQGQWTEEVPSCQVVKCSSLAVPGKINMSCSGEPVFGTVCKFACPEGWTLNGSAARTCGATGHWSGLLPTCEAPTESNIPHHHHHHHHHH
Kind of experiment: SPR, antibody captured, E-selectin analyte. How it is done:
(§1) All flow cells were blocked with 1M Ethanolamine-HCl (ETH) for 7 minutes at 10 μL/minute. Final immobilization level of the capture antibody was approximately 10,000 resonance units (RU). The running buffer for immobilization and kinetics was HBS-EP+(10 mM 4-(2-hydroxyethyl)-1-piperazineethanesulfonic acid (HEPES) pH 7.4, 150 mM sodium chloride, 3 mM ethylenediaminetetraacetic acid (EDTA), 0.05% (v/v) Tween-20).
(§2) To characterize binding of antibodies to human, cynomolgus monkey, and mouse E-selectin, an antibody was diluted to 0.5 μg/mL in HBS-EP+ and captured by the anti-human IgG immobilized on flow cells 2, 3 and 4 for 30 seconds to 1 minute at a flow rate of 10 μL/minute to achieve a capture level of 70 to 300 RU. Flow cell 1 was used as a reference surface. […] HBS-EP+ buffer cycles collected for each captured antibody were used for double-referencing (Myszka D G. J. Mol. Recognition 1999; 12(5):279-84). At the end of each cycle, the entire anti-IgG surface was regenerated by a 30 second pulse of 3 M MgCl₂ and a 30 second pulse of ionic buffer (1.83 M MgCl₂, 0.92 M Urea, 1.83 M Guanidine HCl, pH 7.4) (Andersson K. Analy. Chem. 1999; 71(13): 2475-81). Kinetic assays were conducted at 25° C. at a collection rate of 10 Hertz (Hz) on a BIAcore™ T200 instrument (GE Healthcare). Rate constants and affinities were determined by fitting the data to a 1:1 binding model in BIAcore™ T200 Evaluation software version 3.0 (GE Healthcare).
(§3) This was done by first binding the antibody to immobilized anti-human IgG. After antibody capture, dilutions of the E-selectin proteins were flowed over and the association rate constant (ka), disassociation rate constant (kd), t½, and KD values were determined for binding to human and cynomolgus (Table 26).

Experiment [2] has as its target T2, cynomolgus monkey E-selectin extracellular domain with 10 His purification tail (cynomolgus monkey, UniProt P16581 22-554 (human entry)).
T2 construct: also called cynomolgus E-selectin; truncated cynomolgus monkey E-selectin
T2 chain: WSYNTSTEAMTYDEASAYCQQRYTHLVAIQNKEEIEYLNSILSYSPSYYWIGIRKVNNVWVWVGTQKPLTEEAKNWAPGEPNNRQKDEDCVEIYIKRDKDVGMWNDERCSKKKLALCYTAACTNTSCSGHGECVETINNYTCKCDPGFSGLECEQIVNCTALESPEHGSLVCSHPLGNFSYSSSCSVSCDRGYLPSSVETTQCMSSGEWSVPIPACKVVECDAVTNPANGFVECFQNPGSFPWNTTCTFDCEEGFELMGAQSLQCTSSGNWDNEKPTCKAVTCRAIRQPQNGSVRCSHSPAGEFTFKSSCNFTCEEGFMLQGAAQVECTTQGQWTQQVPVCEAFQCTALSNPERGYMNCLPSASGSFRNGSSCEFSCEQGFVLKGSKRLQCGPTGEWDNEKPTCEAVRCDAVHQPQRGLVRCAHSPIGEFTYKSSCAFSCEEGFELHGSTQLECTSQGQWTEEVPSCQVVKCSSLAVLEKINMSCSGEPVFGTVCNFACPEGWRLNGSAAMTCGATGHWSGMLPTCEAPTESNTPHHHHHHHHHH
Kind of experiment: SPR, antibody captured, E-selectin analyte. Here is the method:
as §1, §2, §3
(SPR reads the build-up and loss of mass on a sensor chip optically.)

B1: optimized anti-E-selectin antibody 1282 (antibody, human IgG1, kappa, V domains shown)
VH: EVQLVESGGGLVQPGGSLRLSCAASGYAIRSAYMHWVRQAPGKGLEWVARIDPANGNTIYVDSVEGRFTISADNAKNSAYLQMNSLRAEDTAVYYCAMDLYSTSEYWGQGTLVTVSS
VL: DIQMTQSPSSLSASVGDRVTITCKTSQNIERYLNWYQQKPGKAPKLLIYAASSLQSGVPSRFSGSGSGTDFTLTISSLQPEDFATYFCLQDNAWPLTFGQGTKVEIKR
notes: effector-null human IgG1, kappa
A word on the Kd: it is the concentration at which binding is half-saturated. In general, koff refers to the rate constant with which the complex falls apart. By kon is commonly meant a measure of how fast the partners come together. What is called t½ is the time needed for the level to fall by half in the phase considered. In experiment [1], B1 had a Kd of 70.3 nM, a koff of 0.0141 s⁻¹, a kon of 201000 M⁻¹ s⁻¹ and a t½ of 49.3 s. Moreover, in experiment [2], the affinity, expressed as Kd, was 78.3 nM; the koff turned out to be 0.0176 s⁻¹; the kon turned out to be 227000 M⁻¹ s⁻¹; the t½ stood at 39.4 s.

B2: optimized anti-E-selectin antibody 1444 (antibody, human IgG1, kappa, V domains shown)
VH: EVQLVESGGGLVQPGGSLRLSCAASGYAIRSAYMHWVRQAPGKGLEWVARIDPANGNTIYVDSVTGRFTISADNAKNSAYLQMNSLRAEDTAVYYCAMDLYSTSEYWGQGTLVTVSS
VL: DIQMTQSPSSLSASVGDRVTITCKTSQNIERYLNWYQQKPGKAPKLLIYAASSLQSGVPSRFSGSGSGTDFTLTISSLQPEDFATYFCLQDNAWPLTFGQGTKVEIKR
notes: as for B1
With B2, in experiment [1], the Kd came out at 61.8 nM, the koff amounted to 0.0163 s⁻¹, the kon came out at 264000 M⁻¹ s⁻¹ and the t½ worked out at 42.7 s. In experiment [2], this molecule came in with a Kd of 81.5 nM, an off-rate constant (koff) of 0.0171 s⁻¹, a kon of 211000 M⁻¹ s⁻¹ and a t½ of 40.5 s.

B3: optimized anti-E-selectin antibody 1284 (antibody, human IgG1, kappa, V domains shown)
VH: EVQLVESGGGLVQPGGSLRLSCAASGYAIRSAYMHWVRQAPGKGLEWVARIDPANGNTIYVESVEGRFTISADNAKNSAYLQMNSLRAEDTAVYYCAMDLYSTSEYWGQGTLVTVSS
VL: DIQMTQSPSSLSASVGDRVTITCKTSQNIERYLNWYQQKPGKAPKLLIYAASSLQSGVPSRFSGSGSGTDFTLTISSLQPEDFATYFCLQDNAWPLTFGQGTKVEIKR
notes: as for B1
Turning to B3, in experiment [1], the Kd was determined as 65.2 nM, the koff was determined as 0.0145 s⁻¹, the kon is 222000 M⁻¹ s⁻¹ and the t½ was determined as 48 s. Moreover, in experiment [2], the Kd turned out to be 76.5 nM, the koff was found to be 0.018 s⁻¹, the kon turned out to be 236000 M⁻¹ s⁻¹ and the t½ turned out to be 38.5 s.

B4: optimized anti-E-selectin antibody 1448 (antibody, human IgG1, kappa, V domains shown)
VH: EVQLVESGGGLVQPGGSLRLSCAASGYAIRSAYMHWVRQAPGKGLEWVARIDPANGNTIYVDSVKERFTISADNAKNSAYLQMNSLRAEDTAVYYCAMDLYSTSEYWGQGTLVTVSS
VL: DIQMTQSPSSLSASVGDRVTITCKTSQNIERYLNWYQQKPGKAPKLLIYAASSLQSGVPSRFSGSGSGTDFTLTISSLQPEDFATYFCLQDNAWPLTFGQGTKVEIKR
notes: as for B1
B4: in experiment [1], the Kd stood at 60.5 nM, the koff amounted to 0.0126 s⁻¹, the kon worked out at 210000 M⁻¹ s⁻¹ and the t½ is 55 s. In experiment [2], this molecule showed a Kd of 67.8 nM, a koff of 0.015 s⁻¹, a kon of 222000 M⁻¹ s⁻¹ and a t½ of 46.2 s.

Values taken from US20240076386A1 (Pfizer, published 2024).
